No end group written: not given here. O‑glycan = not defined here
Test: In vivo half-life assay, serum OCN after intraperitoneal injection in Bglap-/- mice
Design: species or system mouse
Settings: for serum OCN / in vivo half-life / % OCN from initial (relative to maximum at 30 min) / % OCN from initial, mean used for 1/2 life: 40 ng/g i.p.; for serum OCN: ELISA; for in vivo half-life: estimated from declining phase after maximum at 30 min, serum ELISA; for % OCN from initial (relative to maximum at 30 min) / % OCN from initial, mean used for 1/2 life: serum, fasted Bglap-/- mice
Procedure: For in vivo half-life assay, Bglap-/- male mice were injected intraperitoneally with 40 or 80 ng/g of body weight of mouse O-glycosylated ucOCN or non-glycosylated ucOCN, serum OCN level was analyzed at indicated time points using total mouse OCN ELISA. In all ex vivo and in vivo studies, mouse or human proteins were prepared in saline solution (0.9% NaCl) containing BSA (35 mg/ml) as a carrier.

O-gly ucOCN: O-glycosylated uncarboxylated mouse osteocalcin produced and purified from HEK293 as Fc fusion, released by thrombin (YLGASVPS(O‑glycan)PDPLEPTREQCELNPACDELSDQYGLKTAYKRIYGITI; ends and bridges not checked; also: O-glycosylated (HexNAc, Hex, NANA); UniProt P86546 50-95, looked up)
serum OCN (Bglap-/- male mice fasted 16 hr, 15 min, mouse 1): 24.4 ng/mL | serum OCN (Bglap-/- male mice fasted 16 hr, 15 min, mouse 2): 19.4 ng/mL | serum OCN (Bglap-/- male mice fasted 16 hr, 15 min, mouse 3): 16.3 ng/mL | serum OCN (Bglap-/- male mice fasted 16 hr, 15 min, mouse 4): 21.1 ng/mL | serum OCN (Bglap-/- male mice fasted 16 hr, 15 min, mouse 5): 17.9 ng/mL | serum OCN (Bglap-/- male mice fasted 16 hr, 30 min, mouse 1): 30.7 ng/mL | serum OCN (Bglap-/- male mice fasted 16 hr, 30 min, mouse 2): 26.9 ng/mL | serum OCN (Bglap-/- male mice fasted 16 hr, 30 min, mouse 3): 24.6 ng/mL | serum OCN (Bglap-/- male mice fasted 16 hr, 30 min, mouse 4): 23.6 ng/mL | serum OCN (Bglap-/- male mice fasted 16 hr, 30 min, mouse 5): 20.9 ng/mL | serum OCN (Bglap-/- male mice fasted 16 hr, 60 min, mouse 1): 27.5 ng/mL | serum OCN (Bglap-/- male mice fasted 16 hr, 60 min, mouse 2): 23.9 ng/mL | serum OCN (Bglap-/- male mice fasted 16 hr, 60 min, mouse 3): 23.9 ng/mL | serum OCN (Bglap-/- male mice fasted 16 hr, 60 min, mouse 4): 20.4 ng/mL | serum OCN (Bglap-/- male mice fasted 16 hr, 60 min, mouse 5): 19.0 ng/mL | serum OCN (Bglap-/- male mice fasted 16 hr, 90 min, mouse 1): 26.3 ng/mL | serum OCN (Bglap-/- male mice fasted 16 hr, 90 min, mouse 2): 20.0 ng/mL | serum OCN (Bglap-/- male mice fasted 16 hr, 90 min, mouse 3): 21.1 ng/mL | serum OCN (Bglap-/- male mice fasted 16 hr, 90 min, mouse 4): 17.6 ng/mL | serum OCN (Bglap-/- male mice fasted 16 hr, 90 min, mouse 5): 15.7 ng/mL | serum OCN (Bglap-/- male mice fasted 16 hr, 120 min, mouse 1): 21.6 ng/mL | serum OCN (Bglap-/- male mice fasted 16 hr, 120 min, mouse 2): 17.9 ng/mL | serum OCN (Bglap-/- male mice fasted 16 hr, 120 min, mouse 3): 18.4 ng/mL | serum OCN (Bglap-/- male mice fasted 16 hr, 120 min, mouse 4): 17.6 ng/mL | serum OCN (Bglap-/- male mice fasted 16 hr, 120 min, mouse 5): 15.6 ng/mL | in vivo half-life (Bglap-/- male mice fasted 16 hr): 182 min | in vivo half-life (Bglap-/- male mice fasted 16 hr, listed as O-glycosylated ucOCN): ~ 182 min | serum OCN (fed Bglap-/- male mice, 15 min, mouse 1): 46.2 ng/mL | serum OCN (fed Bglap-/- male mice, 15 min, mouse 2): 44.9 ng/mL | serum OCN (fed Bglap-/- male mice, 15 min, mouse 3): 53.1 ng/mL | serum OCN (fed Bglap-/- male mice, 15 min, mouse 4): 55.0 ng/mL | serum OCN (fed Bglap-/- male mice, 15 min, mouse 5): 58.1 ng/mL | serum OCN (fed Bglap-/- male mice, 15 min, mouse 6): 56.8 ng/mL | serum OCN (fed Bglap-/- male mice, 15 min, mouse 7): 44.9 ng/mL | serum OCN (fed Bglap-/- male mice, 15 min, mouse 8): 33.3 ng/mL | serum OCN (fed Bglap-/- male mice, 15 min, mouse 9): 33.3 ng/mL | serum OCN (fed Bglap-/- male mice, 15 min, mouse 10): 59.4 ng/mL | serum OCN (fed Bglap-/- male mice, 30 min, mouse 1): 51.1 ng/mL | serum OCN (fed Bglap-/- male mice, 30 min, mouse 2): 72.5 ng/mL | serum OCN (fed Bglap-/- male mice, 30 min, mouse 3): 64.1 ng/mL | serum OCN (fed Bglap-/- male mice, 30 min, mouse 4): 65.1 ng/mL | serum OCN (fed Bglap-/- male mice, 30 min, mouse 5): 69.7 ng/mL | serum OCN (fed Bglap-/- male mice, 30 min, mouse 6): 73.2 ng/mL | serum OCN (fed Bglap-/- male mice, 30 min, mouse 7): 40.4 ng/mL | serum OCN (fed Bglap-/- male mice, 30 min, mouse 8): 59.8 ng/mL | serum OCN (fed Bglap-/- male mice, 30 min, mouse 9): 47.5 ng/mL | serum OCN (fed Bglap-/- male mice, 30 min, mouse 10): 72.5 ng/mL | serum OCN (fed Bglap-/- male mice, 60 min, mouse 1): 25.1 ng/mL | serum OCN (fed Bglap-/- male mice, 60 min, mouse 2): 44.3 ng/mL | serum OCN (fed Bglap-/- male mice, 60 min, mouse 3): 31.5 ng/mL | serum OCN (fed Bglap-/- male mice, 60 min, mouse 4): 48.0 ng/mL | serum OCN (fed Bglap-/- male mice, 60 min, mouse 5): 45.3 ng/mL | serum OCN (fed Bglap-/- male mice, 60 min, mouse 6): 33.8 ng/mL | serum OCN (fed Bglap-/- male mice, 60 min, mouse 7): 15.4 ng/mL | serum OCN (fed Bglap-/- male mice, 60 min, mouse 8): 40.4 ng/mL | serum OCN (fed Bglap-/- male mice, 60 min, mouse 9): 23.7 ng/mL | serum OCN (fed Bglap-/- male mice, 60 min, mouse 10): 29.5 ng/mL | serum OCN (fed Bglap-/- male mice, 90 min, mouse 1): 11.0 ng/mL | serum OCN (fed Bglap-/- male mice, 90 min, mouse 2): 19.1 ng/mL | serum OCN (fed Bglap-/- male mice, 90 min, mouse 3): 10.0 ng/mL | serum OCN (fed Bglap-/- male mice, 90 min, mouse 4): 23.7 ng/mL | serum OCN (fed Bglap-/- male mice, 90 min, mouse 5): 20.1 ng/mL | serum OCN (fed Bglap-/- male mice, 90 min, mouse 6): 15.5 ng/mL | serum OCN (fed Bglap-/- male mice, 90 min, mouse 7): 7.2 ng/mL | serum OCN (fed Bglap-/- male mice, 90 min, mouse 8): 19.6 ng/mL | serum OCN (fed Bglap-/- male mice, 90 min, mouse 9): 11.8 ng/mL | serum OCN (fed Bglap-/- male mice, 90 min, mouse 10): 11.4 ng/mL | serum OCN (fed Bglap-/- male mice, 120 min, mouse 1): 5.5 ng/mL | serum OCN (fed Bglap-/- male mice, 120 min, mouse 2): 9.5 ng/mL | serum OCN (fed Bglap-/- male mice, 120 min, mouse 3): 4.6 ng/mL | serum OCN (fed Bglap-/- male mice, 120 min, mouse 4): 13.3 ng/mL | serum OCN (fed Bglap-/- male mice, 120 min, mouse 5): 10.2 ng/mL | serum OCN (fed Bglap-/- male mice, 120 min, mouse 6): 7.5 ng/mL | serum OCN (fed Bglap-/- male mice, 120 min, mouse 7): 4.4 ng/mL | serum OCN (fed Bglap-/- male mice, 120 min, mouse 8): 8.5 ng/mL | serum OCN (fed Bglap-/- male mice, 120 min, mouse 9): 6.4 ng/mL | serum OCN (fed Bglap-/- male mice, 120 min, mouse 10): 5.9 ng/mL | serum OCN (fed Bglap-/- male mice, 180 min, mouse 1): 1.2 ng/mL | serum OCN (fed Bglap-/- male mice, 180 min, mouse 2): 2.3 ng/mL | serum OCN (fed Bglap-/- male mice, 180 min, mouse 3): 1.0 ng/mL | serum OCN (fed Bglap-/- male mice, 180 min, mouse 4): 2.9 ng/mL | serum OCN (fed Bglap-/- male mice, 180 min, mouse 5): 2.4 ng/mL | serum OCN (fed Bglap-/- male mice, 180 min, mouse 6): 4.2 ng/mL | serum OCN (fed Bglap-/- male mice, 180 min, mouse 7): 3.5 ng/mL | serum OCN (fed Bglap-/- male mice, 180 min, mouse 8): 4.0 ng/mL | serum OCN (fed Bglap-/- male mice, 180 min, mouse 9): 3.7 ng/mL | serum OCN (fed Bglap-/- male mice, 180 min, mouse 10): 3.9 ng/mL | Serum OCN at 120 minutes (fed Bglap-/- male mice, dose 40 ng/g i.p., mouse 1): 9.5 ng/mL | Serum OCN at 120 minutes (fed Bglap-/- male mice, dose 40 ng/g i.p., mouse 2): 4.6 ng/mL | Serum OCN at 120 minutes (fed Bglap-/- male mice, dose 40 ng/g i.p., mouse 3): 13.3 ng/mL | Serum OCN at 120 minutes (fed Bglap-/- male mice, dose 40 ng/g i.p., mouse 4): 10.2 ng/mL | Serum OCN at 120 minutes (fed Bglap-/- male mice, dose 80 ng/g i.p., mouse 1): 11.6 ng/mL | Serum OCN at 120 minutes (fed Bglap-/- male mice, dose 80 ng/g i.p., mouse 2): 22.5 ng/mL | Serum OCN at 120 minutes (fed Bglap-/- male mice, dose 80 ng/g i.p., mouse 3): 25.2 ng/mL | Serum OCN at 120 minutes (fed Bglap-/- male mice, dose 80 ng/g i.p., mouse 4): 14.9 ng/mL | % OCN from initial (relative to maximum at 30 min) (30 min, mouse 1): 100.0% | % OCN from initial (relative to maximum at 30 min) (30 min, mouse 2): 100.0% | % OCN from initial (relative to maximum at 30 min) (30 min, mouse 3): 100.0% | % OCN from initial (relative to maximum at 30 min) (30 min, mouse 4): 100.0% | % OCN from initial (relative to maximum at 30 min) (30 min, mouse 5): 100.0% | % OCN from initial (relative to maximum at 30 min) (60 min, mouse 1): 89.4% | % OCN from initial (relative to maximum at 30 min) (60 min, mouse 2): 88.9% | % OCN from initial (relative to maximum at 30 min) (60 min, mouse 3): 97.3% | % OCN from initial (relative to maximum at 30 min) (60 min, mouse 4): 86.4% | % OCN from initial (relative to maximum at 30 min) (60 min, mouse 5): 90.9% | % OCN from initial (relative to maximum at 30 min) (90 min, mouse 1): 85.8% | % OCN from initial (relative to maximum at 30 min) (90 min, mouse 2): 74.3% | % OCN from initial (relative to maximum at 30 min) (90 min, mouse 3): 85.8% | % OCN from initial (relative to maximum at 30 min) (90 min, mouse 4): 74.6% | % OCN from initial (relative to maximum at 30 min) (90 min, mouse 5): 75.0% | % OCN from initial (relative to maximum at 30 min) (120 min, mouse 1): 70.4% | % OCN from initial (relative to maximum at 30 min) (120 min, mouse 2): 66.4% | % OCN from initial (relative to maximum at 30 min) (120 min, mouse 3): 75.1% | % OCN from initial (relative to maximum at 30 min) (120 min, mouse 4): 74.6% | % OCN from initial (relative to maximum at 30 min) (120 min, mouse 5): 74.7% | % OCN from initial, mean used for 1/2 life (time 0 min of declining phase): 100.0% | % OCN from initial, mean used for 1/2 life (time 30 min of declining phase): 90.6% | % OCN from initial, mean used for 1/2 life (time 60 min of declining phase): 79.1% | % OCN from initial, mean used for 1/2 life (time 90 min of declining phase): 72.2%
